T1: Cynomolgus TNFR2 (Macaca fascicularis (cynomolgus monkey), UniProt P20333 26-461 (human entry))
T1 construct: Expressed on transiently transfected HEK293 cells; also called TNFR2-cyno; monkey TNFR2
T1 chain: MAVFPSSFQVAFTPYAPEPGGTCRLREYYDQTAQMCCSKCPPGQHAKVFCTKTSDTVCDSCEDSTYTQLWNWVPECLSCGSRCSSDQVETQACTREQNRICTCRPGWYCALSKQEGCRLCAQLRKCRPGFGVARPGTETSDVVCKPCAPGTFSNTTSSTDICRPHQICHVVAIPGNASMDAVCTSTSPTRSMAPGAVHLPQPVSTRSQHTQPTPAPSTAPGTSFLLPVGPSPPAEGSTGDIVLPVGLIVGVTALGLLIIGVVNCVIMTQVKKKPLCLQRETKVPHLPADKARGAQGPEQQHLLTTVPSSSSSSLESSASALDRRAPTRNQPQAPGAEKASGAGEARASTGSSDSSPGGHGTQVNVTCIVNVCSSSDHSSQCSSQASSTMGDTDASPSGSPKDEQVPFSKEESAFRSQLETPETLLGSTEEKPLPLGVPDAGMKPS

T2: Human TNFR2 (human, UniProt P20333 23-461)
T2 construct: On cells: HeLa-TNFR2, HT1080-Bcl2-TNFR2, transiently transfected HEK293; endogenous on Kym-1 cells; also called huTNFR2; TNFRSF1B
T2 sequence: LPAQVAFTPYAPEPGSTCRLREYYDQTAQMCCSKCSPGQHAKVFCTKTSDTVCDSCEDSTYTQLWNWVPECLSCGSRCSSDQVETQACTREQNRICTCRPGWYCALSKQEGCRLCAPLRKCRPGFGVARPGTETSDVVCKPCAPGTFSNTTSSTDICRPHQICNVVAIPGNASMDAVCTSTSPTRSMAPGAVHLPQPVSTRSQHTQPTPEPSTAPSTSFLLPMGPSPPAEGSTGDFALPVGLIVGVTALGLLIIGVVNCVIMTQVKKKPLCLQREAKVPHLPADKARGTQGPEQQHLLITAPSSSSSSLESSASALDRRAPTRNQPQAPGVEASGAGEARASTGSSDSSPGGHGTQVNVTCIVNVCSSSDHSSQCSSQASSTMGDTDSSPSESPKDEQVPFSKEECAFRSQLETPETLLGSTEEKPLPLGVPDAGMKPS

T3: Extracellular domain of TNFR1 with a GPI anchor domain (UniProt P19438 30-211)
T3 construct: extracellular domain; not shown: GPI anchor domain
T3 sequence (looked up): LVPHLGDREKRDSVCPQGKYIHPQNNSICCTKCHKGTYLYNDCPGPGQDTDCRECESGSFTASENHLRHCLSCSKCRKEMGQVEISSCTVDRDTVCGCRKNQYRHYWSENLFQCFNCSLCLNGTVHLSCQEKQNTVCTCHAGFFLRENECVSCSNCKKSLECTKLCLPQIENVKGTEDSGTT

T4: Murine TNFR2 (mouse, UniProt P25119 23-474)
T4 construct: Expressed on transiently transfected HEK293 cells; also called mouse TNFR2; TNFR2(mu)
T4 sequence: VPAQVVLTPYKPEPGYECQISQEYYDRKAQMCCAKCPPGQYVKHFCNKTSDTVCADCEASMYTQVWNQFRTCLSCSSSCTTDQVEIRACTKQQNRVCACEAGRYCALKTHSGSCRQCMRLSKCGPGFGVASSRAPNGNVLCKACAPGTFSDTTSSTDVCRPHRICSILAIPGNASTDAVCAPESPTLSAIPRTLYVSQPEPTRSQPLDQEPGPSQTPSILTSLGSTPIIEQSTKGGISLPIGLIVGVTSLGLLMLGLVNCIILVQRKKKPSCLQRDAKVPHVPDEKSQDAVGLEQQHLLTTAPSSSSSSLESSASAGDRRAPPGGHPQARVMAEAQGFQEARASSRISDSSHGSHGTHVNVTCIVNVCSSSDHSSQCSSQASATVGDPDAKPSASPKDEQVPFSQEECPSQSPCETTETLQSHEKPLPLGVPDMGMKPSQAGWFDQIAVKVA

B1: C9-IgG1(N297A)-LC:GpL (antibody)
light: EVKLVPRQLDYKDDDDKELQIVLTQSPAIMSASPGEKVTITCSASSSVSYMHWFQQKPGTSPKLWIYSTSNLASGVPARFSGSGSGTSYSLTISRMEAEDAATYYCQQRSSYPPTFGGGTKLEIKGSEIKRTVAAPSVFIFPPSDEQLKSGTASVVCLLNNFYPREAKVQWKVDNALQSGNSQESVTEQDSKDSTYSLSSTLTLSKADYEKHKVYACEVTHQGLSSPVTKSFNRGECLEKPTENNEDFNIVAVASNFATTDLDADRGKLPGKKLPLEVLKEMEANARKAGCTRGCLICLSHIKCTPKMKKFIPGRCHTYEGDKESAQGGIGEAIVDIPEIPGFKDLEPMEQFIAQVDLCVDCTTGCLKGLANVQCSDLLKKWLPQRCATFASKIQGQVDKIKGAGGD
heavy: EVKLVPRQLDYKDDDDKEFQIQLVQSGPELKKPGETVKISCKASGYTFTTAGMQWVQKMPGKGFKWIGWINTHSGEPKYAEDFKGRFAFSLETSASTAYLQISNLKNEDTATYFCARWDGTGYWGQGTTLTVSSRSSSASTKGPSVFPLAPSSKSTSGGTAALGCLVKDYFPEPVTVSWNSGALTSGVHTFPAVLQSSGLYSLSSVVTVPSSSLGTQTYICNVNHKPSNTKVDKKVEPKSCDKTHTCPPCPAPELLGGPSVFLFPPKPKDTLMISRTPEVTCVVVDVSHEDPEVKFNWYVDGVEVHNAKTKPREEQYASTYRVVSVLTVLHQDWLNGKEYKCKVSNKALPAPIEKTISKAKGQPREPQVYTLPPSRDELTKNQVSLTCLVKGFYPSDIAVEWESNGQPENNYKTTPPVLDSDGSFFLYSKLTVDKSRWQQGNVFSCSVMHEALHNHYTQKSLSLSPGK
notes: copies: 2 + 2
B2: C27-IgG1(N297A)-LC:GpL (antibody)
light: EVKLVPRQLDYKDDDDKELNIVMTQSPKSLSMSVGERVTLNCKASENVKTYVSWYQQKPEQSPKLLIYGASNRYTGVPDRFTGSGSATDFTLTISSVQAEDLADYHCGQSYSYPFTFGAGTKLERKGSEIKRTVAAPSVFIFPPSDEQLKSGTASVVCLLNNFYPREAKVQWKVDNALQSGNSQESVTEQDSKDSTYSLSSTLTLSKADYEKHKVYACEVTHQGLSSPVTKSFNRGECLEKPTENNEDFNIVAVASNFATTDLDADRGKLPGKKLPLEVLKEMEANARKAGCTRGCLICLSHIKCTPKMKKFIPGRCHTYEGDKESAQGGIGEAIVDIPEIPGFKDLEPMEQFIAQVDLCVDCTTGCLKGLANVQCSDLLKKWLPQRCATFASKIQGQVDKIKGAGGD
heavy: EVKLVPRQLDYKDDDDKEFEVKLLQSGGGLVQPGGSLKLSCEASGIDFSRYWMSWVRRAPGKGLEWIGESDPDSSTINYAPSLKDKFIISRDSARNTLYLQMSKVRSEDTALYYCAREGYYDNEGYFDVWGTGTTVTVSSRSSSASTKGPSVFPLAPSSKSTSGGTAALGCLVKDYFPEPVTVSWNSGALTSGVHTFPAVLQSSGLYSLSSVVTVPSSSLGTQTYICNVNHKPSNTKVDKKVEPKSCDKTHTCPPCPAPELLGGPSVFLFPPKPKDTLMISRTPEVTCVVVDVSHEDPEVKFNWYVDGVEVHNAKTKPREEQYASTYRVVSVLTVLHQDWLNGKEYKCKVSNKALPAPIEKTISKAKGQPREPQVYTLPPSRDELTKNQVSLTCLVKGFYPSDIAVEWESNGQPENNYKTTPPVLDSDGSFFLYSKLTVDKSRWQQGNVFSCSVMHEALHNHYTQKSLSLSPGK
notes: copies: 2 + 2

Experiments:
Cynomolgus TNFR2 = target: T1, Cynomolgus TNFR2; experiment: equilibrium binding of the GpL fusion protein to HEK293 cells transiently transfected with cynomolgus TNFR2, 37 °C; empty-vector cells as non-specific binding
Procedure: (§1) FIG. 14—Binding of TNFR2-specific antibodies to human, murine and cynomolgus TNFR2. HEK293 cells were transiently transfected with human, murine and cynomologus TNFR2 or empty vector. Equilibrium binding of the indicated anti-TNFR2 antibody GpL fusion proteins were then determined at 37° C. Binding to empty vector transfected cells was determined to obtain unspecific binding values.
(§2) Affinity (KD-values) of TNFR2-targeting antibodies to human, cynomolgus monkey, and murine TNFR2 was evaluated by cellular equilibrium binding studies. Therefore, HEK293T cells were transiently transfected with human, cynomolgus or mouse TNFR2 encoding expression plasmids or an empty vector control (EV) using the PEI method. […] Cell associated luciferase activity (RLU; relative light units) was detected with LUmo luminometer (anthos Mikrosysteme GmbH, Friesoythe, Germany) directly after adding 1.5 μM of the substrate coelenterazin (Carl Roth, Karlsruhe, Germany).
(§3) The binding properties of anti-TNFR2 antibodies from different clones were assessed. […] Equilibrium binding of the indicated anti-TNFR2 antibody GpL fusion proteins was then determined at 37° C. Binding to empty vector transfected cells was determined to obtain unspecific binding values.

Human TNFR2 [1] = target: T2, Human TNFR2; experiment: binding of the GpL tagged protein to HEK293 cells transiently transfected with TNFR2, 1 h 37 °C; empty-vector cells as non-specific binding
Procedure: (§4) HEK293 cells were transiently transfected with: (i) a TNFR2 expression plasmid; (ii) an expression plasmid encoding the extracellular domain of TNFR1 with a GPI anchor domain; or (iii) empty vector (ev). Next day, the indicated GpL tagged binding molecules were added at the indicated concentration to the cells. After incubation for 1 hour at 37° C., followed by two washes with PBS, the remaining cell bound GpL activity was determined.
(§5) An experiment was performed to illustrate the ability of the binding molecules provided to bind TNFR2, but not TNFR1. HEK293 cells were transiently transfected with: (i) a TNFR2 expression plasmid; (ii) an expression plasmid encoding the extracellular domain of TNFR1 with a GPI anchor domain; or (iii) empty vector (ev). […] The proteins indicated in FIG. 27 were added at the indicated concentration to the HEK293 cells. After incubation for 1 hour at 37° C., followed by two washes with PBS, the remaining cell bound GpL activity was determined.

[2] = target: T3, Extracellular domain of TNFR1 with a …; experiment: binding of the GpL tagged protein to HEK293 cells transiently transfected with the TNFR1 extracellular domain with GPI anchor; empty-vector cells as non-specific binding
Procedure: as §4, §5

Murine TNFR2 [3] = target: T4, Murine TNFR2; experiment: equilibrium binding of the GpL fusion protein (label C9-IgG1-LC:GpL) to HEK293 cells transiently transfected with murine TNFR2; empty-vector cells as non-specific binding
Procedure: as §1, §2, §3

Human TNFR2 [4] = target: T2, Human TNFR2; experiment: equilibrium binding of the GpL fusion protein to HeLa-TNFR2 cells, 37 °C; unspecific binding on HeLa cells subtracted; cell-bound luciferase
Procedure: FIG. 11—Binding properties of TNFR2-specific antibodies. (A) Equilibrium binding of the indicated anti-TNFR2 antibody GpL fusion proteins to cell expressed human TNFR2 at 37° C. (B) HeLa-TNFR2 cells were pretreated with the indicated amounts of anti-TNFR2 antibodies or remained untreated. […] Binding of the various constructs to untransfected HeLa cells was analyzed to obtain unspecific binding values.
Affinity of TNFR2-specific antibodies and antibody variants were also evaluated with HeLa cells and HeLa cells stably expressing human TNFR2. HeLa and HeLa-TNFR2 cells were seeded out in 24-well plates. Next day, the cells were challenged with the indicated concentrations of GpL-labelled TNFR2 antibodies for 1 hour at 37° C. To eliminate the unbound antibodies, the cells were washed 10 times with ice-cold PBS. The cells were then scratched and collected in 50 μl of medium (RPMI, 0.5% FCS) and transferred to black 96-well plates for measurement as mentioned above. The specific binding of different TNFR2-specific antibodies/antibody variants was calculated by subtracting the unspecific binding (values obtained from HeLa cells) from total binding (obtained from HeLa-TNFR2). The resulting values were fitted using the non-linear regression analysis option of GraphPad Prism 5.

Murine TNFR2 [5] = target: T4, Murine TNFR2; experiment: equilibrium binding of the GpL fusion protein (label C27-IgG1-LC:GpL) to HEK293 cells transiently transfected with murine TNFR2; empty-vector cells as non-specific binding
Procedure: as §1, §2, §3

| Binder | Kd (Cynomolgus TNFR2) [µg/mL] | Kd (Human TNFR2 [1]) [µg/mL] | binding result [2] | binding result (Murine TNFR2 [3]) | Bmax (Human TNFR2 [4]) [kRLU] | Kd (Human TNFR2 [4]) [µg/mL] | binding result (Murine TNFR2 [5]) |
| --- | --- | --- | --- | --- | --- | --- | --- |
| B1 | 1.1 | 0.13 | no binding (tested: 750 ng/ml) | no binding (tested: 1500 ng/ml) | 1000 | 0.22 | – |
| B2 | – | – | no binding (tested: 750 ng/ml) | – | – | – | no binding (tested: 1000 ng/ml) |

From patent US20240190983A1 (JULIUS MAXIMILIANS UNIVERSIT T W RZBURG, published 2024)
